Experiment [1] addresses T1, recombinant cyno transferrin receptor protein (Sino Biological 90253-C07H) (cyno, UniProt H9EXL1 89-760 (rhesus entry)).
T1 construct: Bought protein coated on ELISA plates; also called recombinant cyno TfR1; cynoTfR1
Briefly: ELISA on plate-coated recombinant cyno TfR1 (CD71); fit: specific binding with Hill slope. How it is done: (§1) Half-well high-binding 96-well plates (Costar #3690) were coated with recombinant human transferrin receptor protein (Sino Biological 11020-H07H) or recombinant cyno transferrin receptor protein (Sino Biological 90253-C07H) at 1 ng/μL in PBS (Gibco 14190) and incubated overnight at 4° C. Plates were washed four times with 100 μL of Tris buffered saline+Tween (20×TBST, Cell Signaling 9997S). 100 μL of Superblock (ThermoFisher PI-37535) was added to each well and incubated for 1 hour at room temperature. The wash step was repeated before the addition of the samples. Samples were added at concentrations up to 10 nM, 50 μL/well. Plates were incubated for another hour at room temp and wash step repeated. Secondary antibody (Peroxidase AffiniPure Goat Anti-Human IgG, Fcγ Fragment Specific, Jackson Immunoresearch, 109-035-098) was diluted 1:5000 in Superblock and 50 μL/well added. Plates were incubated for 1 hour at room temperature and washed one more time. Binding was measured by the addition of 50 μL of 1-Step™ Ultra TMB-ELISA (ThermoFisher, 34028), incubated for 5 minutes, and the reaction was stopped with the addition of 25 μL of Stop Solution 2N sulfuric Acid (R&D Systems DY994). Absorbance was measured at 450 nm, with reference wavelength 570 nm subtracted. Binding constants were determined using GraphPad Prism Specific Binding with Hill Slope.
A general note: In an ELISA, binding on a coated surface is turned into a signal by an enzyme label.

Experiment [2] addresses T2, hTfR (human transferrin receptor, source and construct not stated) (human, UniProt P02786 89-760, limits assumed). Briefly: SPR (BioRad ProteOn XPR36), mAb captured on Protein A, hTfR as analyte, 25 C. As to the method:
The binding kinetics of nine exemplary humanized anti-TfR antibodies and the parent chimeric antibody were characterized. Studies were run on a BioRad ProteOn XPR36 optical biosensor using a GLM sensor chip coated with Protein A for mAb capture. Running buffer included 10 mM EPES, 150 mM NaCl, pH 7.4 with 0.05 tween-20 with 0.2 mg/ml BSA. Data were collected at 25 degrees C. All mAbs were diluted into running buffer to 2 ug/ml based on the stock concentration provided. Each was then captured for 40 seconds over a Protein A surface.
hTfR (100 ug) was dissolved into […] of water to yield a 4.3 uM stock concentration. hTfR was dilted to 43 nM as the highest concentration and tested in a 3 fold dilution series. hTfR was injected at 200 ul/min for 2 minutes followed by a one-hour dissociation phase.

The target in experiment [3] is T2, hTfR (human transferrin receptor, …). Briefly: ELISA; ratio of the Kd on HFE-captured hTfR to the Kd on directly coated hTfR.
For experiment [4] the target is unchanged. Briefly: ELISA; ratio of the Kd on transferrin-captured hTfR to the Kd on directly coated hTfR. How it is done:
(§2) Antibodies were biotinylated using 50 fold molar excess of EZ-Link No weigh NHS-Biotin (Thermo Scientific A39256) following manufacturer's instructions. Half-well high-bind plates (Costar #3690) were coated with 500 ng/mL purified human holo-transferrin (R&D Systems 2914-HT) in PBS at 4° C. overnight. For comparison, plates were coated directly with hTfR. Plates were washed four times with 100 μL of Tris buffered saline+Tween (20×TBST, Cell Signaling 9997S). 100 μL of Superblock (ThermoFisher PI-37535) was added to each well and incubated for 1 hour at room temperature. The wash step was repeated before the addition of the hTfR (200 ng/mL in 25 μl) to the transferrin plates, or Superblock to the hTfR plates, and incubated for 30 minutes. Biotinylated antibodies were diluted to 20 nM for the high concentration and added to the plates with 3-fold serial dilution. 25 μl/well was added to the 25 μl already in the plate. Plates were incubated for 1 hour, and wash step was repeated. Streptavidin-HRP (R&D Systems DY998) was added following recommended dilution on the package insert, and a final wash step was done. Binding was measured by the addition of 50 μL of 1-Step™ Ultra TMB-ELISA (ThermoFisher, 34028), incubated for 5 minutes, and the reaction was stopped with the addition of 25 μL of Stop Solution 2N sulfuric Acid (R&D Systems DY994). Absorbance was measured at 450 nm, with reference wavelength 570 nm subtracted. Binding constants were determined using GraphPad Prism Specific Binding with Hill Slope. Change in antibody binding constants in the presence versus absense of transferrin is considered relative to the commercially available antibody which is known to have an overlapping epitope with transferrin (AF2474, R&D Systems).

Experiment [5] has the same target. Briefly: ELISA, biotinylated antibody on hTfR captured by plate-coated human holo-transferrin (Tf+TfR); fit: specific binding with Hill slope. How it is done: as §2
Experiment [6] shares this target. Briefly: ELISA, biotinylated antibody on hTfR captured by plate-coated HFE (HFE+TfR); fit: specific binding with Hill slope.
Experiment [7] addresses T3, TfR2 (transferrin receptor 2) (UniProt Q9UP52 105-801, limits assumed).
T3 sequence (looked up): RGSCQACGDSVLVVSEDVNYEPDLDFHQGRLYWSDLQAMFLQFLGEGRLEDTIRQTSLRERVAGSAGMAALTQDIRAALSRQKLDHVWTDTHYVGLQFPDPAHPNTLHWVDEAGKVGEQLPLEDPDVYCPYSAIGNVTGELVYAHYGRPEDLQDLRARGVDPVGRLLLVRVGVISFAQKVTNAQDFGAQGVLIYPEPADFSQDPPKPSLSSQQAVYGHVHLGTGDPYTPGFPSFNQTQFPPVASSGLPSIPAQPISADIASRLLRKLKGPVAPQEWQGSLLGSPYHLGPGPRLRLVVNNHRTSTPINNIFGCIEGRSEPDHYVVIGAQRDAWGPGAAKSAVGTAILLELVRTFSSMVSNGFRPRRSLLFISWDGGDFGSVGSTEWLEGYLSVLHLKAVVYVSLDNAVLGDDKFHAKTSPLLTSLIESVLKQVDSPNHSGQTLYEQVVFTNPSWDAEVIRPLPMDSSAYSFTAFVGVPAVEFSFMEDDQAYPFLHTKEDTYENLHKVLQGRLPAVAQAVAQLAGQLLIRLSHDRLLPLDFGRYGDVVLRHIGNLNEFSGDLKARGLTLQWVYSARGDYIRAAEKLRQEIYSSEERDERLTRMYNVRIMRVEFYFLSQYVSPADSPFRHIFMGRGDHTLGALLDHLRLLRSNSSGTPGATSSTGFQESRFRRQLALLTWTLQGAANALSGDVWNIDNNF
Briefly: A450 plate assay on TfR2 (method not described in the text).

Experiment [8] addresses T4, recombinant human transferrin receptor protein (Sino Biological 11020-H07H) (human, UniProt P02786 89-760).
T4 construct: Bought protein coated on ELISA plates; also called recombinant human TfR1; human TfR1
Briefly: ELISA on plate-coated recombinant human TfR1 (CD71); fit: specific binding with Hill slope. How it is done: as §1

T1 sequence (chain, as listed by the source C07H C07H): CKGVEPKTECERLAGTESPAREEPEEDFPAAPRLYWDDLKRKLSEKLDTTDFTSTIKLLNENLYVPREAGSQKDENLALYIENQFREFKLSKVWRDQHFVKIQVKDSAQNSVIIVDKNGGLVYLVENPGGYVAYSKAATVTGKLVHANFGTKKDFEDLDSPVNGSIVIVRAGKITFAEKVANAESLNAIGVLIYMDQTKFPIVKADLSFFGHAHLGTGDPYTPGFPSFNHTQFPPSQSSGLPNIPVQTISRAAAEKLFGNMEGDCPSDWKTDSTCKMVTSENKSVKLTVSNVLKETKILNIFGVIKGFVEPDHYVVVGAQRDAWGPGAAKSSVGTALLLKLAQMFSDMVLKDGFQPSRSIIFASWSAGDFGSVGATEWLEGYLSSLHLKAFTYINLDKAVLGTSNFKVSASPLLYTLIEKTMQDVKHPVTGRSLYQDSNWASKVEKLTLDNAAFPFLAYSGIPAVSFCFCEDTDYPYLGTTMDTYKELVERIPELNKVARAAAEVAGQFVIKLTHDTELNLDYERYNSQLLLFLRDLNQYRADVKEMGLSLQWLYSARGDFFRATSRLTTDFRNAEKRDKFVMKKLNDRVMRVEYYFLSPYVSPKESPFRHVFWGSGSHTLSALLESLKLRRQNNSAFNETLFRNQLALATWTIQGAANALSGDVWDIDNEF
T2 sequence (P02786 89-760 limits assumed): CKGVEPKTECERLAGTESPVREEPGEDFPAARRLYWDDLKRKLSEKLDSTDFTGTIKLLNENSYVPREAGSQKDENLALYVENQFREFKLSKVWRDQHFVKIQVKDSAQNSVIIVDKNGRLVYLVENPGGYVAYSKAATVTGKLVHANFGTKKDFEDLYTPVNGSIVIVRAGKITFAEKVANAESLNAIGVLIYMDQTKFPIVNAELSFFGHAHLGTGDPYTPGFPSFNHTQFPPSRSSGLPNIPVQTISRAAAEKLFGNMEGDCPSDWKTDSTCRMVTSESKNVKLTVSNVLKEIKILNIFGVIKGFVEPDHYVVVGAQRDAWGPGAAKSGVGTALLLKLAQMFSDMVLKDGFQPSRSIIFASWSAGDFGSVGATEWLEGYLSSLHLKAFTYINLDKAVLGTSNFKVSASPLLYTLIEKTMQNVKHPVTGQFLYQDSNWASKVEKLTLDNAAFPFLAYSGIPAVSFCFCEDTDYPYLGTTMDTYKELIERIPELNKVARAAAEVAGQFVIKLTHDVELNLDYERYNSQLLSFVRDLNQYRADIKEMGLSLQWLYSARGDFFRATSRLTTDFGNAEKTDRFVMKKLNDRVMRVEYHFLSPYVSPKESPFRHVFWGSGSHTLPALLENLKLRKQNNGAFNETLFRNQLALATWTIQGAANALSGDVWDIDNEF
T4 sequence (P02786 89-760 limits assumed): as above

B1: 13E4-Variant 2i (antibody, human IgG1, kappa, L234A L235A)
heavy: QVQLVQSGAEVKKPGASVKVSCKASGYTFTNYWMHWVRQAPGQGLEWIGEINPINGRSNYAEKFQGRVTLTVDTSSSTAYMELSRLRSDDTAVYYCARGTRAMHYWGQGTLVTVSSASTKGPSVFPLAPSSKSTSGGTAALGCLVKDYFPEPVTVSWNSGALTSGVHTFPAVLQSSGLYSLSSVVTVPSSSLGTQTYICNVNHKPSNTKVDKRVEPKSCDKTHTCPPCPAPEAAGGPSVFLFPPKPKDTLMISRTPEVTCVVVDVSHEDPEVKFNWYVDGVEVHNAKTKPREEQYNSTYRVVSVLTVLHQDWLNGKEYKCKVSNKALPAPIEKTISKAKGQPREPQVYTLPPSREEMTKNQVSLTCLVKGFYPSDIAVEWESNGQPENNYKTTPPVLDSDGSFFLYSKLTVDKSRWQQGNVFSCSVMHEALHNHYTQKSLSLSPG
light: DIQMTQSPSSLSASVGDRVTITCRTSENIYNNLAWYQQKPGKSPKLLIYAATNLADGVPSRFSGSGSGTDYTLTISSLQPEDFATYYCQHFWGTPLTFGGGTKVEIKRTVAAPSVFIFPPSDEQLKSGTASVVCLLNNFYPREAKVQWKVDNALQSGNSQESVTEQDSKDSTYSLSSTLTLSKADYEKHKVYACEVTHQGLSSPVTKSFNRGEC
notes: Humanized hIgG1 with Fc mutations; also called hIgG1 TfR-Var2i
In general, Kd refers to a measure of binding affinity in units of concentration. As a reminder, the koff is the rate constant with which the complex falls apart. Broadly, the kon is the second-order rate constant of association. Low readings indicate slower complex formation, high ones faster complex formation. Consider B1, for which, in experiment [1], the Bmax was 93.1 % max binding, the Kd is 0.012 nM and the h was 1.56. In experiment [2], this molecule had a Kd of 0.00043 nM, a koff of 3.9e-07 s⁻¹ and a kon of 913000 M⁻¹ s⁻¹. Also, the “Kd(HFE+TfR)/Kd(TfR)” value in experiment [3] stood at 11.1. Further, in experiment [4], the “Kd(Tf+TfR)/Kd(TfR)” value was 2.8. In addition, in experiment [5], the Bmax amounted to 3.48 A450, binding was characterised by a dissociation constant (Kd) of 0.0678 nM and the h is 1.49. Moreover, in experiment [6], the Bmax is 3 A450, the Kd was determined as 0.273 nM and the h is 1.63. For the same molecule, the binding result in experiment [7] is listed as “no binding (tested: 1000 nM)”. Besides, in experiment [8], the Bmax came to 94.2 % max binding, the Kd is 0.00817 nM and the h amounted to 1.35.

B2: 13E4-Variant 2iii (antibody, human IgG1, kappa, L234A L235A)
heavy: QVQLVQSGAEVKKPGASVKVSCKASGYTFTNYWMHWVRQAPGQGLEWIGEINPINGRSNYAEKFQGRVTLTVDTSSSTAYMELSRLRSDDTAVYYCARGTRAMHYWGQGTLVTVSSASTKGPSVFPLAPSSKSTSGGTAALGCLVKDYFPEPVTVSWNSGALTSGVHTFPAVLQSSGLYSLSSVVTVPSSSLGTQTYICNVNHKPSNTKVDKRVEPKSCDKTHTCPPCPAPEAAGGPSVFLFPPKPKDTLMISRTPEVTCVVVDVSHEDPEVKFNWYVDGVEVHNAKTKPREEQYNSTYRVVSVLTVLHQDWLNGKEYKCKVSNKARPAPIEKTISKAKGQPREPQVYTLPPSREEMTKNQVSLTCLVKGFYPSDIAVEWESNGQPENNYKTTPPVLDSDGSFFLYSKLTVDKSRWQQGNVFSCSVMHEALHNHYTQKSLSLSPG
light: DIQMTQSPSSLSASVGDRVTITCRTSENIYNNLAWYQQKPGKSPKLLIYAATNLADGVPSRFSGSGSGTDYTLTISSLQPEDFATYYCQHFWGTPLTFGGGTKVEIKRTVAAPSVFIFPPSDEQLKSGTASVVCLLNNFYPREAKVQWKVDNALQSGNSQESVTEQDSKDSTYSLSSTLTLSKADYEKHKVYACEVTHQGLSSPVTKSFNRGEC
notes: Humanized hIgG1 with Fc mutations; also called hIgG1 TfR-Var2iii
Regarding B2, in experiment [1], the Bmax was 94.3 % max binding, the Kd came to 0.0092 nM and the h turned out to be 1.35. Moreover, in experiment [2], binding was characterised by a dissociation constant (Kd) of 0.00095 nM, the koff is 8.2e-07 s⁻¹ and the kon was 862000 M⁻¹ s⁻¹. Further, the “Kd(HFE+TfR)/Kd(TfR)” value in experiment [3] stood at 11.9. Further, the “Kd(Tf+TfR)/Kd(TfR)” value in experiment [4] is 2.1. In experiment [5], this molecule registered a Bmax of 3.47 A450, a Kd of 0.0522 nM and a h of 1.61. In experiment [6], this molecule returned a Bmax of 2.66 A450, a Kd of 0.289 nM and a h of 1.26. Further, the binding result in experiment [7] was “no binding (tested: 1000 nM)”. For the same molecule, in experiment [8], the Bmax was 95 % max binding, the Kd was 0.00958 nM and the h was found to be 1.2.

B3: 13E4-Variant 2ii (antibody, human IgG1, kappa, L234A L235A)
heavy: QVQLVQSGAEVKKPGASVKVSCKASGYTFTNYWMHWVRQAPGQGLEWIGEINPINGRSNYAEKFQGRVTLTVDTSSSTAYMELSRLRSDDTAVYYCARGTRAMHYWGQGTLVTVSSASTKGPSVFPLAPSSKSTSGGTAALGCLVKDYFPEPVTVSWNSGALTSGVHTFPAVLQSSGLYSLSSVVTVPSSSLGTQTYICNVNHKPSNTKVDKRVEPKSCDKTHTCPPCPAPEAAGGPSVFLFPPKPKDTLMISRTPEVTCVVVDVSHEDPEVKFNWYVDGVEVHNAKTKPREEQYNSTYRVVSVLTVLHQDWLNGKEYKCGVSNKALPAPIEKTISKAKGQPREPQVYTLPPSREEMTKNQVSLTCLVKGFYPSDIAVEWESNGQPENNYKTTPPVLDSDGSFFLYSKLTVDKSRWQQGNVFSCSVMHEALHNHYTQKSLSLSPG
light: DIQMTQSPSSLSASVGDRVTITCRTSENIYNNLAWYQQKPGKSPKLLIYAATNLADGVPSRFSGSGSGTDYTLTISSLQPEDFATYYCQHFWGTPLTFGGGTKVEIKRTVAAPSVFIFPPSDEQLKSGTASVVCLLNNFYPREAKVQWKVDNALQSGNSQESVTEQDSKDSTYSLSSTLTLSKADYEKHKVYACEVTHQGLSSPVTKSFNRGEC
notes: Humanized hIgG1 with Fc mutations; also called hIgG1 TfR-Var2ii
On to B3, for which, in experiment [1], the Bmax turned out to be 94.2 % max binding, the Kd came out at 0.0127 nM and the h was found to be 1.58. In experiment [2], the Kd came to 0.00049 nM, the koff was found to be 4.3e-07 s⁻¹ and the kon is 880000 M⁻¹ s⁻¹. For the same molecule, in experiment [3], the “Kd(HFE+TfR)/Kd(TfR)” value is 9.9. The “Kd(Tf+TfR)/Kd(TfR)” value in experiment [4] was 2.5. Besides, in experiment [5], the Bmax came to 3.53 A450, binding was characterised by a dissociation constant (Kd) of 0.0578 nM and the h turned out to be 1.45. In experiment [6], this molecule returned a Bmax of 3.15 A450, a Kd of 0.227 nM and a h of 1.64. Further, the binding result in experiment [7] is listed as “no binding (tested: 1000 nM)”. Also, in experiment [8], the Bmax was found to be 92.9 % max binding, the dissociation constant (Kd) was 0.00964 nM and the h was 1.43.

Source of the values: patent US20200325237A1 (AVIDITY BIOSCIENCES, published 2020).
